According to publication PMC5286519, “Two strategies to engineer flexible loops for improved enzyme thermostability” (Scientific Reports, 2017):
Substitutions are numbered along the chain they refer to. Names may count otherwise.

B1: Escherichia coli transketolase (TK); wild-type E. coli TK (Escherichia coli K-12) (protein)
chain: MSSRKELANAIRALSMDAVQKAKSGHPGAPMGMADIAEVLWRDFLKHNPQNPSWADRDRFVLSNGHGSMLIYSLLHLTGYDLPMEELKNFRQLHSKTPGHPEVGYTAGVETTTGPLGQGIANAVGMAIAEKTLAAQFNRPGHDIVDHYTYAFMGDGCMMEGISHEVCSLAGTLKLGKLIAFYDDNGISIDGHVEGWFTDDTAMRFEAYGWHVIRDIDGHDAASIKRAVEEARAVTDKPSLLMCKTIIGFGSPNKAGTHDSHGAPLGDAEIALTREQLGWKYAPFEIPSEIYAQWDAKEAGQAKESAWNEKFAAYAKAYPQEAAEFTRRMKGEMPSDFDAKAKEFIAKLQANPAKIASRKASQNAIEAFGPLLPEFLGGSADLAPSNLTLWSGSKAINEDAAGNYIHYGVREFGMTAIANGISLHGGFLPYTSTFLMFVEYARNAVRMAALMKQRQVMVYTHDSIGLGEDGPTHQPVEQVASLRVTPNMSTWRPCDQVESAVAWKYGVERQDGPTALILSRQNLAQQERTEEQLANIARGGYVLKDCAGQPELIFIATGSEVELAVAAYEKLTAEGVKARVVSMPSTDAFDKQDAAYRESVLPKAVTARVAVEAGIADYWYKYVGLNGAIVGMTTFGESAPAELLFEEFGFTVDNVVAKAKELL
notes: full-length tktA product, N-terminal His6-tag (kept, no cleavage told), expressed in E. coli XL10-Gold from plasmid pQR791, Ni-NTA purified, dialysed into ThDP and MgCl2 (holo form), homodimer
B2: Escherichia coli transketolase (TK); wild-type E. coli TK (Escherichia coli K-12; H192P) (protein)
chain: B1 chain with H192P
notes: as for B1
B3: Escherichia coli transketolase (TK); wild-type E. coli TK (Escherichia coli K-12; A282P/H192P) (protein)
chain: B1 chain with H192P, A282P
notes: as for B1
B4: Escherichia coli transketolase (TK); wild-type E. coli TK (Escherichia coli K-12; I189H) (protein)
chain: B1 chain with I189H
notes: as for B1
B5: Escherichia coli transketolase (TK); wild-type E. coli TK (Escherichia coli K-12; A282P) (protein)
chain: B1 chain with A282P
notes: as for B1
B6: Escherichia coli transketolase (TK); wild-type E. coli TK (Escherichia coli K-12; D143K) (protein)
chain: B1 chain with D143K
notes: as for B1

substrate: O=CCO; assay: HPLC of erythrulose formed, Michaelis-Menten fit; format: biochemical, Escherichia coli; conditions: 50 mM Li-HPA (saturating co-substrate), 4-80 mM GA, 2.4 mM ThDP, 9 mM MgCl2, 50 mM Tris-HCl pH 7.0, 22 °C
Excerpt: HPLC of erythrulose formed, Michaelis-Menten fit on Escherichia coli transketolase (TK); wild-type E. coli TK

Protein	Km	kcat [s⁻¹]	kcat/Km [M⁻¹ s⁻¹]
B1	20.5 (1.3) mM	62.3	3040
B2	18.0 (1.2) mM	65.5	3640
B3	23.3 (1.4) mM	81.2	3480
B4	18.0 (0.8) mM	–	–
B5	17.6 (2.1) mM	45.5	2580
B6	16.1 (1.2) mM	48.1	2990
